This is an account of results in patent US20230272099A1 (Chugai, published 2023).

Residue numbers refer to the chain shown, from its start.

B1: 20H4.9-MB110/20H4.9LC-mk0 (antibody, mouse IgG1, kappa)
heavy: QVQLQQWGAGLLKPSETLSLTCAVYGGSFSGYYWSWIRQSPEKGLEWIGEINHGGYVTYNPSLESRVTISVDTSKNQFSLKLSSVTAADTAVYYCARDYGPGNYDWYFDLWGRGTLVTVSSAKTTPPSVYPLAPGSAAQTNSMVTLGCLVKGYFPEPVTVTWNSGSLSSGVHTFPAVLQSDLYTLSSSVTVPSSTWPSETVTCNVAHPASSTKVDKKIVPRDCGCKPCICTVPEVSDVFIFPPKPKDVLTITLTPKVTCVVVDISKDDPEVQFSWFVDDVEVHTAQTQPREEQFNSTFRSVSELPIMHQDWLNGKEFKCRVNSAAFPAPIEKTISKTKGRPKAPQVYTIPPPKEQMAKDKVSLTCMITDFFPEDITVEWQWNGQPAENYKNTQPIMDTDGSYFVYSKLNVQKSNWEAGNTFTCSVLHEGLHNHHTEKSLSHSPGK
light: EIVLTQSPATLSLSPGERATLSCRASQSVSSYLAWYQQKPGQAPRLLIYDASNRATGIPARFSGSGSGTDFTLTISSLEPEDFAVYYCQQRSNWPPALTFGGGTKVEIKRADAAPTVSIFPPSSEQLTSGGASVVCFLNNFYPKDINVKWKIDGSERQNGVLNSWTDQDSKDSTYSMSSTLTLTKDEYERHNSYTCEATHKTSTSPIVKSFNRNEC
notes: also called NS1-MB110
B2: 20H4.9-MB492/20H4.9LC-mk0 (antibody, mouse IgG1, kappa)
heavy: B1 heavy with T231E, V232P, P233N, S236E, N322D
light: B1 light
notes: also called NS1-MB492
B3: 20H4.9-mIgG1/20H4.9LC-mk0 (antibody)
heavy: B1 heavy with D237S
light: B1 light
notes: also called NS1-mIgG1

The target of one experiment is T1, hCD137 (FXa digested) (human, UniProt Q07011 24-186).
T1 construct: Factor Xa digestion and Protein A removed the Fc; also called human CD137 extracellular domain
T1 sequence (Q07011 other isoform, or with tags, fused parts or gaps limits assumed): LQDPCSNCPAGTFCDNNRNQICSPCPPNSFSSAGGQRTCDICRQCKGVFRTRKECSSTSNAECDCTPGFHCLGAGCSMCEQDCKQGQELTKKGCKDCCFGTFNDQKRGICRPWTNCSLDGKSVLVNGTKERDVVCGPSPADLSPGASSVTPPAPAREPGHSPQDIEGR
The experiment in a line: SPR 37C, 10 uM ATP. How it is done:
(§1) Measurements of human CD137 binding were taken at 37° C. using 20 mM ACES (pH 7.4), 150 mM NaCl, 2 mM MgCl₂, and 0.05% Tween20 as running buffer. At first, antibodies were captured by interacting antibody solutions prepared in running buffer with the rabbit anti-mouse IgG (Thermo Scientific)-immobilized Series S Sensor Chip CM5 (GE Healthcare). The human CD137-binding activity in the presence of ATP and in the absence of ATP was then assessed by interacting with a human CD137 solution prepared in running buffer supplemented with a desired concentration of ATP, or a human CD137 solution prepared in running buffer without ATP. […] The chip was regenerated using 25 mM NaOH and 10 mM Glycine-HCl (pH 1.5), and measurements were performed by repeatedly capturing antibodies. Dissociation constant (KD) of the respective antibodies for human CD137 was calculated using Biacore T200 Evaluation Software 2.0. Specifically, the association rate constant ka (L/mol/s) and the dissociation rate constant kd (1/s) were calculated by global fitting of the sensorgrams obtained by measurement with the 1:1 Langmuir binding model, and the dissociation constant KD (mol/L) was calculated from these values.
B1 showed a Kd of 0.0539 µM.
B2: the dissociation constant (Kd) stood at 0.0535 µM.
Molecule B3 showed a Kd of 0.0544 µM.

Another experiment addresses T1, hCD137 (FXa digested). Kind of experiment: SPR 37C, 1 uM ATP. Here is the method: as §1
Molecule B1 showed a Kd of 0.0565 µM.
The molecule B2 gave a Kd of 0.0549 µM.
The molecule B3 registered a Kd of 0.0562 µM.

In a further experiment the target is T1, hCD137 (FXa digested). Kind of experiment: SPR 37C, 100 uM ATP. How it is done:
as §1
Molecule B1 had a Kd of 0.0519 µM.
B2 registered a Kd of 0.0504 µM.
Still for that read-out and setting: with B3 the figure was 0.0536 µM.

For a further experiment, the target named is T1, hCD137 (FXa digested). Kind of experiment: SPR 37C, no ATP. Here is the method:
as §1
As to B1, binding was characterised by a dissociation constant (Kd) of 0.061 µM.
Same read-out and setting: to B2 belongs 0.0616 µM; to B3, 0.0617 µM.
